These results are taken from publication PMC3229559.

The target in the experiment is PKC-α (UniProt P20444). Kind of experiment: biotin-peptide pull-down from heart extract. The conditions noted are these: reference: non-phosphorylated peptide; sites S179.

On to “syndecan-4 cytoplasmic part, 171-198 (from UniProt O35988) pS179 peptide”, for which the “binding against the reference” value is given as “weaker”.
